Key:
[1] = target: HLA-A*01:01; test: IEDB peptide-MHC binding, purified MHC/direct/fluorescence; filed as Kd, often an IC50 or EC50 that approximates it; ≥ and ≤ were set here for values at or beyond the usual limits of such assays
[2] = target: HLA-A*02:01; test: as above
[3] = target: HLA-A*03:01; test: as above
[4] = target: HLA-A*26:01; test: as above
[5] = target: HLA-A*30:01; test: as above; details: source organism: Rickettsia sibirica
[6] = target: HLA-A*31:01; test: as above
[7] = target: HLA-A*69:01; test: as above
[8] = target: HLA-B*07:02; test: as above
[9] = target: HLA-B*08:01; test: as above; details: source organism: Rickettsia sibirica
[10] = target: HLA-B*15:01; test: as above
[11] = target: HLA-B*27:05; test: as above
[12] = target: HLA-B*40:01; test: as above
[13] = target: HLA-B*44:02; test: as above; details: source organism: Rickettsia sibirica
[14] = target: HLA-B*58:01; test: as above
[15] = target: HLA-A*03:01; test: IEDB peptide-MHC binding, purified MHC/competitive/fluorescence; filed as Kd, often an IC50 or EC50 that approximates it; ≥ and ≤ were set here for values at or beyond the usual limits of such assays; details: source organism: Influenza A virus H3N2
[16] = target: HLA-A*31:01; test: as above; details: source organism: Influenza A virus H3N2
[17] = target: HLA-A*68:23; test: as above
[18] = target: HLA-B*15:42; test: as above
[19] = target: HLA-B*45:06; test: as above
[20] = target: HLA-B*83:01; test: as above
[21] = target: HLA-A*11:01; test: IEDB peptide-MHC binding, purified MHC/direct/fluorescence; filed as Kd, often an IC50 or EC50 that approximates it; ≥ and ≤ were set here for values at or beyond the usual limits of such assays
[22] = target: HLA-A*26:03; test: as above; details: source organism: Burkholderia mallei ATCC 23344
[23] = target: HLA-A*68:02; test: as above
[24] = target: HLA-B*15:17; test: as above
[25] = target: HLA-B*18:01; test: as above
[26] = target: HLA-B*46:01; test: as above
[27] = target: HLA-B*48:01; test: as above
[28] = target: HLA-B*57:01; test: as above
[29] = target: HLA-B*15:01; test: IEDB peptide-MHC binding, purified MHC/competitive/fluorescence; filed as Kd, often an IC50 or EC50 that approximates it; ≥ and ≤ were set here for values at or beyond the usual limits of such assays
[30] = target: HLA-C*06:02; test: IEDB peptide-MHC binding, purified MHC/direct/fluorescence; filed as Kd, often an IC50 or EC50 that approximates it; ≥ and ≤ were set here for values at or beyond the usual limits of such assays; details: source organism: Yersinia pseudotuberculosis IP 31758
[31] = target: HLA-B*40:01; test: IEDB peptide-MHC binding, purified MHC/competitive/fluorescence; filed as Kd, often an IC50 or EC50 that approximates it; ≥ and ≤ were set here for values at or beyond the usual limits of such assays; details: source organism: Yersinia pseudotuberculosis IP 31758
[32] = target: HLA-A*02:06; test: as above; details: source organism: Ehrlichia chaffeensis
[33] = target: HLA-A*26:01; test: as above; details: source organism: Ehrlichia chaffeensis
[34] = target: HLA-A*26:03; test: as above; details: source organism: Ehrlichia chaffeensis
[35] = target: HLA-B*07:02; test: as above; details: source organism: Ehrlichia chaffeensis
[36] = target: HLA-B*27:05; test: as above; details: source organism: Ehrlichia chaffeensis
[37] = target: HLA-B*35:01; test: as above; details: source organism: Ehrlichia chaffeensis
[38] = source organism: Rickettsia sibirica
[39] = source organism: Influenza A virus H3N2
[40] = source organism: Burkholderia mallei
[41] = source organism: Yersinia pseudotuberculosis IP 31758
[42] = source organism: Brucella abortus 2308

Sequence AIKPITDQF has a Kd [1, 38] of at least 20 µM, a Kd [2, 38] of at least 20 µM and a Kd [3, 38] of at least 20 µM. The Kd [4, 38] was at least 20 µM, the Kd [5] was 8.09 µM and the Kd [6, 38] was at least 20 µM. The Kd [7, 38] was at least 20 µM, the Kd [8, 38] was 5.83 µM and the Kd [9] was at least 20 µM. The Kd [10, 38] was at least 20 µM, the Kd [11, 38] was at least 20 µM and the Kd [12, 38] was at least 20 µM. For the same sequence, the Kd [13] was at least 20 µM and the Kd [14, 38] was at least 10 µM.
For FSFGGFTFK, the Kd [15] was 3.7 nM, the Kd [16] was at most 1 nM and the Kd [17, 39] was 21.9 nM. For the same sequence, the Kd [18, 39] was at least 5 µM, the Kd [19, 39] was at least 5 µM and the Kd [20, 39] was at least 5 µM.
Sequence IQRRGAQFQ has a Kd [1, 40] of at least 20 µM, a Kd [2, 40] of at least 20 µM and a Kd [3, 40] of at least 20 µM. The Kd [21, 40] was at least 20000 nM, the Kd ([4]; source organism: Burkholderia mallei ATCC 23344) was at least 20 µM and the Kd [22] was at least 20 µM. The Kd [6, 40] was at least 20 µM, the Kd [23, 40] was at least 20 µM and the Kd [8, 40] was at least 20 µM. The Kd [24, 40] was at least 20 µM, the Kd [25, 40] was at least 20 µM and the Kd [11, 40] was at least 20 µM. It also gave a Kd [12, 40] of at least 20 µM, a Kd [26, 40] of at least 20 µM and a Kd [27, 40] of at least 20 µM. For the same sequence, the Kd [28, 40] was at least 20 µM, the Kd [14, 40] was at least 20 µM and the Kd ([29]; source organism: Burkholderia mallei SAVP1) was 3180 nM.
RQMRASAPL was tested, and the Kd [30] was at least 20 µM, the Kd [17, 41] was 2.4 nM and the Kd [29, 41] was 145 nM. For the same sequence, the Kd [18, 41] was at least 5 µM, the Kd [31] was 18.1 nM and the Kd [19, 41] was at least 5 µM. It also gave a Kd [20, 41] of at least 5 µM.
RVYKNYDPR was tested, and the Kd [1, 42] was at least 20 µM, the Kd [2, 42] was at least 20 µM and the Kd [21, 42] was 101 nM. The Kd [6, 42] was 0.0513 µM, the Kd [23, 42] was at least 20 µM and the Kd [7, 42] was at least 20 µM. The Kd [10, 42] was at least 20 µM, the Kd [24, 42] was at least 20 µM and the Kd [25, 42] was at least 20 µM. It also gave a Kd [12, 42] of at least 20 µM, a Kd [26, 42] of at least 20 µM and a Kd [27, 42] of at least 20 µM. It also gave a Kd [28, 42] of at least 20 µM, a Kd [14, 42] of at least 20 µM and a Kd [32] of at least 20 µM. For the same sequence, the Kd [33] was at least 20 µM, the Kd [34] was at least 20 µM and the Kd [35] was at least 20 µM. The Kd [36] was 1060 nM and the Kd [37] was 1670 nM.
